According to article doi:10.1101/2021.09.06.458672:

Biological target: plectasin variant D9S Q14K V36L (PPI42)
Assay: dynamic light scattering

Substance: plectasin variant D9S Q14K V36L (PPI42) (peptide)
- mass fraction of medium sized oligomers and protein fibrils: < 2.5 % mass
